Two substances from paper doi:10.1101/2023.08.18.553786 can be followed below.

Experiment [1] deals with CDTb, the cell-binding component of the C. difficile binary toxin (CDT), active wild type (Clostridioides difficile). In words: cryo-EM structure.
Experiment [2] addresses CDTb^D623A/D734A, active Ca^2+-binding mutant of CDTb (Clostridioides difficile). As to the kind of experiment: cryo-EM structure.

One may read the stoichiometry N as a count of units in the complex or per binding partner.

“CDTb, the cell-binding component of the C. difficile binary toxin (CDT), active wild type (natural protein)” yielded a stoichiometry N in experiment [1] of 7.
“CDTb^D623A/D734A, active Ca^2+-binding mutant of CDTb (natural protein)” gave a stoichiometry N in experiment [2] of 7.
